Experimental data taken from the supplement of paper PMC10724198.

Assays:
Saccharomyces cerevisiae [1] = assay: protein stability index of tFT-peptide fusion in deletion strain of DOA10 (PSI (0-1 scale)); higher = more stable (slower turnover)
Protocol: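 MPS profiling in S. cerevisiae of two library types built from selected 12-aa C-degron peptides (IN1, IN2, LN1, LN3, VN2, R1-R5, W1-W3, Atg1 and Rpa12 C-termini): saturation mutagenesis libraries and C-terminal +1 capping libraries (13 aa). Each peptide is fused to the C-terminus of a sfGFP-mCherry timer, after a GGGS linker. Cells are FACS-sorted into 8 mCherry/sfGFP bins and sequenced. PSI runs from 0 (unstable) to 1 (stable), measured once in wild type and in the das1Δ or doa10Δ background.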

Saccharomyces cerevisiae [2] = assay: protein stability index of tFT-peptide fusion in wild type (PSI (0-1 scale)); higher = more stable (slower turnover); conditions: genetic background: wild type
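Wherever protein stability index of tFT-peptide fusion in deletion strain of DOA10 is given: PSI per variant is the weighted mean of its sequencing read distribution over the sorted stability bins, counting only variants with over 10 reads summed across bins.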
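Wherever protein stability index of tFT-peptide fusion in wild type is given: PSI derived as read-weighted mean over the 8 sorting bins, only variants exceeding 10 total reads kept, mCherry placed adjacent to the peptide and sfGFP distal.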

Sequence	protein stability index (Saccharomyces cerevisiae [1])	protein stability index (Saccharomyces cerevisiae [2])
GLYMCSVGTWFR	0.668	0.514
GLYMCSVGVWFR	0.453	0.198
GLYMCSVVCWFR	0.314	0.253
GLYMCSWGCWFR	0.665	0.296
GLYMKSVGCWFR	0.673	0.257
GLYNCSVGCWFR	0.674	0.414
GLYRCSVGCWFR	0.67	0.428
GVYMCSVGCWFR	0.622	0.276
GYYMCSVGCWFR	0.643	0.227
LITLPMCPLLLR	0.626	0.349
NVTRLDAIYFRI	0.711	0.379
RGLRVLLPLYFR	0.673	0.378
RGTRLDAIYFRI	0.684	0.57
RSHRVLLPLYFR	0.651	0.317
RSLEVLLPLYFR	0.691	0.219
RSLNVLLPLYFR	0.669	0.266
RSLQVLLPLYFR	0.675	0.264
RSLRGLLPLYFR	0.696	0.444
RSLRRLLPLYFR	0.683	0.466

Sequence	protein stability index (Saccharomyces cerevisiae [1])	protein stability index (Saccharomyces cerevisiae [2])
RSLRVCLPLYFR	0.671	0.194
RSLRVLHPLYFR	0.701	0.218
RSLRVLLNLYFR	0.659	0.397
RSLRVLLPEYFR	0.677	0.653
RSLRVLLPFYFR	0.668	0.564
RSLRVLLPIYFR	0.663	0.242
RSLRVLLPLNFR	0.671	0.535
RSLRVLLPLPFR	0.676	0.64
RSLRVLLPLYFRM	0.411	0.202
RSLRVLLPLYQR	0.659	0.617
RSLRVLLPLYRR	0.673	0.624
RSLRVLLQLYFR	0.606	0.383
RSLRVVLPLYFR	0.679	0.178
RSLSVLLPLYFR	0.682	0.289
RTLRVLLPLYFR	0.657	0.304
RTTRLDAIYFRI	0.658	0.498
RVGRLDAIYFRI	0.647	0.412
RVTRADAIYFRI	0.684	0.525
RVTRDDAIYFRI	0.684	0.652

Sequence	protein stability index (Saccharomyces cerevisiae [1])	protein stability index (Saccharomyces cerevisiae [2])
RVTRLDADYFRI	0.722	0.686
RVTRLDAEYFRI	0.693	0.675
RVTRLDAFYFRI	0.713	0.644
RVTRLDAIIFRI	0.703	0.499
RVTRLDAIYDRI	0.731	0.696
RVTRLDAIYFGI	0.721	0.682
RVTRLDAIYFRID	0.603	0.54
RVTRLDAIYGRI	0.724	0.69
RVTRLDAIYSRI	0.737	0.702
RVTRLDATYFRI	0.69	0.661
RVTRLDDIYFRI	0.731	0.689
RVTRLDTIYFRI	0.69	0.423
RVTYLDAIYFRI	0.563	0.393
RYTRLDAIYFRI	0.673	0.421
VITLPMCPLLLR	0.615	0.303
YITLPMCPLLLR	0.616	0.337
YLYMCSVGCWFR	0.586	0.317
YVTRLDAIYFRI	0.603	0.185
